Experimental findings from paper PMC10810221, “DELTEX E3 ligases ubiquitylate ADP-ribosyl modification on nucleic acids” are described below.

The target in this data set is DTX3L RD (RING-DTC) (Homo sapiens, UniProt Q8TDB6 544-740). In words: EMSA; 5 mM Mg2+; protein 0.5, 1, 2 uM; RNA 0.5 uM; EMSA: 20 mM HEPES pH 7.5, 50 mM KCl, 5 mM MgCl2, 1 mM DTT, on ice 0.5 h, 6% native PAGE. The settings on record: protein: recombinant; label: 3' Cy3; single strand. (A gel shift assay detects complexes by their altered migration in electrophoresis.)
Chain of DTX3L RD (RING-DTC) (Q8TDB6 544-740): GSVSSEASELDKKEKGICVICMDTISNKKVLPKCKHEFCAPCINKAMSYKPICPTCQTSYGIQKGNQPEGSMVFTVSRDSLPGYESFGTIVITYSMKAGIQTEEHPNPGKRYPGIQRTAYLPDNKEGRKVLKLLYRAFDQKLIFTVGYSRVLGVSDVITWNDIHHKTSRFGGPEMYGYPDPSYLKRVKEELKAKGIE

B1: E35_5'P_RNA_3Cy3 (ssRNA)
RNA: GUGGCGCGGAGACUUAGAGAAAUUGUGAUCAGGAA
modifications: 5' phosphate
On to B1, for which the binding result is “no binding”.
